Reference: the supplement of paper PMC10126150
± gives the standard deviation of the averaged measurements.

Test system: ATP
Assay: switch fluorescence ratio, 500 uM ATP over buffer (Cy3 cluster intensity, sum of 5 cycles each) (fold (ratio)); higher = stronger signal-on switching upon ATP binding; sequences stand for … in TCGTCGGCAGCGTCAGATGTGTATAAGAGACAGTTTTTTTTTTTTTTTTTTTTTTTTT…TC
Details: aptamer strand: ATP DNA aptamer (quencher-CACCTGGGGGAGTATTGCGGAGGAAGG + anchor), 100 nM annealed; ATP concentration: 500 uM
Summary of the method: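 The quencher-labelled ATP aptamer, at 100 nM, was annealed to Cy3-labelled switching-strand clusters on a modified Illumina MiSeq flow-cell. The clusters were imaged in selection buffer, then after 15 min with 500 uM ATP at 22 °C, and this buffer/ATP cycle ran five times with NaOH stripping and re-annealing between runs. Per-cluster fluorescence ratios, summed target-cycle over summed buffer-cycle Cy3 intensity, were averaged per switch-domain sequence. Clusters outside 100-1000 RFU were excluded.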
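Note: ATP exposure 15 min at 22 °C before imaging.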

Row | Sequence | switch fluorescence ratio
1 | GGGGTGGCTA | 1.02 ± 0.019
2 | CATTTTAATA | 1.01 ± 0.021
3 | AACACAAGGT | 1.02 ± 0.017
4 | CGCTAGGTTG | 1.01 ± 0.026
5 | TGCATGTCCT | 1.029 ± 0.0088
6 | ATGTGTGGGA | 1.029 ± 0.0019
7 | GGTGGCCGGT | 0.987 ± 0.021
8 | TGATGCATAA | 1.04 ± 0.034
9 | TTATACAAGT | 0.9574 ± 0.0065
10 | TATTAAATTT | 1.031 ± 0.0051
11 | AGGGGCTGGT | 0.997 ± 0.026
12 | ACCGCGGGGG | 1.03 ± 0.034
13 | TTTTGTAGGG | 0.969 ± 0.041
14 | ATTTAGTACA | 0.973 ± 0.011
15 | TAAAGGGTAT | 0.988 ± 0.032
16 | CGTAAAAAAT | 0.986 ± 0.068
17 | CGGCTTTTGG | 0.9617 ± 0.0084
18 | CGGGGATATT | 1.11 ± 0.23
19 | AGAGATGAGG | 0.974 ± 0.042
20 | ACCATGGGAA | 1.04 ± 0.022
21 | TTTAAATGGT | 1 ± 0.027
22 | GCGAACTTGG | 0.977 ± 0.016
23 | AGTTTAAGAA | 0.98 ± 0.031

Row | Sequence | switch fluorescence ratio
24 | CCTAGTTGTG | 1.02 ± 0.016
25 | CAGGTGCTGG | 1.167 ± 0.0018
26 | AAGAAACGGG | 1.025 ± 0.008
27 | CATTTATTGT | 0.992 ± 0.018
28 | GGTGGTCAGC | 1.012 ± 0.0049
29 | CTCTGTGTTT | 0.9924 ± 0.00037
30 | CCGGGCGACA | 1.11 ± 0.031
31 | CGTGTTTATA | 0.99 ± 0.042
32 | TTTTGGCTTT | 1 ± 0.034
33 | AGTATTGGTG | 0.956 ± 0.026
34 | AAGGGGGAGG | 0.982 ± 0.034
35 | TAGGGCTGGG | 0.972 ± 0.048
36 | GCAAGGAGGA | 0.996 ± 0.014
37 | CTCCTTAGTT | 1.05 ± 0.035
38 | GGGGACTGCG | 1.05 ± 0.023
39 | CATTACGCCG | 1.11 ± 0.042
40 | GCTGAAATTT | 1.01 ± 0.056
41 | CGTGGGCTGT | 0.9817 ± 0.0074
42 | ACTGTACCCT | 1.22 ± 0.016
43 | TCGTGCAACA | 0.983 ± 0.025
44 | TTTAGAATAC | 1.51 ± 0.42
45 | GTAGGAGGGG | 0.985 ± 0.011
46 | TCACAGTTGG | 1.032 ± 0.0034

Row | Sequence | switch fluorescence ratio
47 | GGGGATCAGG | 1.03 ± 0.075
48 | TAAGTGGG | 0.9621 ± 0.0055
49 | TTGACTTTTT | 0.991 ± 0.016
50 | CCGGGTTAGT | 1.06 ± 0.017
51 | TCATGGGTTG | 0.981 ± 0.0053
52 | TCTGGAAAGG | 0.9844 ± 0.00033
53 | CGAGTCAGTT | 0.992 ± 0.029
54 | TTGGCATGGG | 0.99 ± 0.015
55 | GCTTGAGGTA | 1.02 ± 0.054
56 | GCTCAGTTTG | 0.992 ± 0.013
57 | GGGGTGAATC | 1.03 ± 0.045
58 | AACGGACAGG | 1.27 ± 0.049
59 | GTTTGGGGCG | 1.01 ± 0.035
60 | TTTTAATTTA | 1.03 ± 0.043
61 | TAGGCTACGG | 1.03 ± 0.014
62 | AGTTAAAGGT | 0.992 ± 0.023
63 | GCTACAGCTT | 1.02 ± 0.015
64 | TTTTTACAGT | 1.02 ± 0.048
65 | AGGCCCTAAG | 1.01 ± 0.017
66 | GATGACAGAG | 0.974 ± 0.047
67 | CATAGATAGG | 0.992 ± 0.011
68 | GGTGATAGGA | 0.98 ± 0.034
69 | AGTTGTTGGT | 1.01 ± 0.014

Row | Sequence | switch fluorescence ratio
70 | TGGTTAAGGA | 1 ± 0.013
71 | TTTTACAAGT | 0.982 ± 0.03
72 | TAGTAGAGCT | 1.009 ± 0.002
73 | TTTGGGATGG | 0.983 ± 0.046
74 | TTCTGGGGCT | 1.03 ± 0.017
75 | TCGGGGGAAT | 1.11 ± 0.14
76 | CGTTTTTAGG | 1.02 ± 0.024
77 | TTGTATCCTG | 0.9637 ± 0.0011
78 | CCGTGGTAGG | 1.01 ± 0.018
79 | TTCAGTGGAG | 1.009 ± 0.0087
80 | GGGGAGTACT | 1.34 ± 0.44
81 | GGGGGCATCA | 1.07 ± 0.12
82 | TAGGTTTAAA | 0.991 ± 0.039
83 | TGCGAATGAG | 0.993 ± 0.0049
84 | GCTATTTGCG | 1 ± 0.022
85 | CAAGGGAAGT | 0.978 ± 0.017
86 | CGTTTAGGAC | 1.1 ± 0.21
87 | GGTGATCTTT | 0.965 ± 0.044
88 | GTGGGGGACT | 1.28 ± 0.5
89 | ACGGGCAGAG | 1.02 ± 0.013
90 | TTATCTCGTA | 0.99 ± 0.013
91 | GGCTTGAACA | 1.01 ± 0.034
92 | GCCATGCGTC | 1.01 ± 0.026

Row | Sequence | switch fluorescence ratio
93 | TGTCATTCGC | 1.047 ± 0.0074
94 | ACTTTGTCGG | 0.995 ± 0.038
95 | TACCCTTGCC | 1.22 ± 0.25
96 | AGGGTCTGTT | 0.978 ± 0.012
97 | GGGGCTGCAG | 1.09 ± 0.11
98 | GGTAAAATTT | 1 ± 0.03
99 | TTTAATCACC | 1.02 ± 0.02
100 | TTGATGTGCT | 1.01 ± 0.013
101 | TTACGGCCGA | 1.02 ± 0.026
102 | TACTGGTGAC | 1.06 ± 0.012
103 | AGGGGGCGGG | 1.03 ± 0.035
104 | CGGGGAAGCG | 1.01 ± 0.021
105 | AGAGATAGGG | 1.01 ± 0.019
106 | GGAATGTGCG | 0.9794 ± 0.0042
107 | AAGCCTGAGG | 1.015 ± 0.0084
108 | TATATGATGA | 0.996 ± 0.015
109 | AAGGATGTGG | 0.977 ± 0.021
110 | CTGGATCCTT | 1.05 ± 0.017
111 | AGATCTACAT | 1.01 ± 0.016
112 | CATCTTTGCA | 0.9943 ± 0.0063
113 | GGGTCCATCT | 1 ± 0.013
114 | CATGGATGAA | 1.04 ± 0.007
115 | TGGGAGTTCC | 1.04 ± 0.036

Row | Sequence | switch fluorescence ratio
116 | CAGCAACTCA | 1.65 ± 0.024
117 | TTAAGGCACG | 0.999 ± 0.017
118 | CTTTGATTGG | 0.99 ± 0.04
119 | TCGTAGCTAA | 4.37 ± 0.23
120 | CTTTGGAGGT | 0.985 ± 0.016
121 | TTATCATCTA | 1.02 ± 0.013
122 | GGGCTTTAAT | 0.992 ± 0.015
123 | CCGGCGCGTT | 1.96 ± 1.3
124 | CGGGCCTGAA | 0.999 ± 0.041
125 | TACTGTGAGC | 1.016 ± 0.0076
126 | TTTTTTAGCT | 1.01 ± 0.055
127 | TTTACAGGTT | 1.11 ± 0.1
128 | GGTTATGGGG | 0.985 ± 0.027
129 | TAACCTATCT | 1.04 ± 0.033
130 | TCTATGCGGG | 1.017 ± 0.0013
131 | ATTCCAAGGA | 0.9853 ± 0.0019
132 | AGACGGGGTC | 0.9848 ± 0.0021
133 | TTCTATGCAT | 1.14 ± 0.13
134 | GGGAATTGTT | 0.977 ± 0.014
135 | CTGGGGCGTT | 0.983 ± 0.0034
136 | TAATTGGTGT | 1.02 ± 0.043
137 | TGTTATTGGG | 0.987 ± 0.042
138 | TGCCGACGTA | 1.03 ± 0.017

Row | Sequence | switch fluorescence ratio
139 | AATCAGAGCG | 1.021 ± 0.0021
140 | CGTACAGGGG | 1.207 ± 0.004
141 | CCCAGGGGA | 1.91 ± 1
142 | TTTTTGCTTA | 0.993 ± 0.013
143 | GGTGGCGGAA | 0.996 ± 0.037
144 | TGAATGTATT | 1.03 ± 0.045
145 | TCCTCCGTGG | 2.56 ± 0.59
146 | CGCAATTGAG | 3.38 ± 0.17
147 | TTGGGAGCGG | 0.9769 ± 0.0038
148 | GCATTCCGAA | 1.22 ± 0.028
149 | CGGTCGGGGA | 1 ± 0.043
150 | AAATCGCCTT | 1.05 ± 0.02
151 | CGCGATGGCG | 0.98 ± 0.017
152 | AATACCAAAT | 0.999 ± 0.049
153 | TAGAATCGGG | 0.9758 ± 0.0078
154 | AGGGGCTGGG | 0.99 ± 0.017
155 | TGTATGTTAG | 0.9477 ± 0.0061
156 | TGAACCAGGG | 1.05 ± 0.018
157 | TCCGGTGTG | 0.97 ± 0.015
